Laboratory results: US20160159888A1 (CANCER RESEARCH TECHNOLOGY, published 2016)

What was measured:
[1] = biological target: T1, pep 5; test: peptide ELISA, absorbance 450 nm (Pep-BG)
T1 construct: also called S100A4 peptide 5; #5 (11-mer: 43-53)
T1 chain: PSFLGKRTDEA

[2] = biological target: T2, pep 1; test: peptide ELISA, absorbance 450 nm (Pep-BG)
T2 construct: also called S100A4 peptide 1; #1 (10-mer: 1-10)
T2 chain: MACPLEKALD

[3] = biological target: T3, pep 3; test: peptide ELISA, absorbance 450 nm (Pep-BG)
T3 construct: also called S100A4 peptide 3; #3 (11-mer: 21-31)
T3 chain: GKEGDKFKLNK

[4] = biological target: T4, pep 6; test: peptide ELISA, absorbance 450 nm (Pep-BG)
T4 construct: also called S100A4 peptide 6; #6 (12-mer: 54-65)
T4 chain: AFQKLMSNLDSN

[5] = biological target: T5, S100A4 peptide 9 (FEGFPDKQPRKK, 12-mer: 90-101) (human); test: peptide ELISA, absorbance 450 nm (Pep-BG)
T5 construct: also called P9; C-terminal peptide
T5 peptide: FEGFPDKQPRKK

[6] = biological target: T6, pep 2; test: peptide ELISA, absorbance 450 nm (Pep-BG)
T6 construct: also called S100A4 peptide 2; #2 (10-mer: 11-20)
T6 chain: VMVSTFHKYS

[7] = biological target: T7, pep 4; test: peptide ELISA, absorbance 450 nm (Pep-BG)
T7 construct: also called S100A4 peptide 4; #4 (11-mer: 32-42)
T7 chain: SELKELLTREL

[8] = biological target: T8, human S100A4 protein (human, UniProt P26447 2-101, limits assumed); test: Western blot of recombinant proteins and of cell extracts (FIG. 1)
T8 construct: Recombinant protein on blots and endogenous protein in extracts of human cell lines; also called human S100A4 recombinant protein

[9] = biological target: T9, mouse S100A4 protein (mouse, UniProt P07091 2-101, limits assumed); test: ELISA screen of hybridoma clones on mouse S100A4
T9 construct: also called murine S100A4; recombinant mouse S100A4 protein

[10] = biological target: T10, h S100A9 (human, UniProt P06702); test: Western blot of purified S100 proteins on PVDF membrane
T10 construct: purified protein on a PVDF membrane; one of the 'other S100 family members'; also called human S100A9
T10 sequence (looked up): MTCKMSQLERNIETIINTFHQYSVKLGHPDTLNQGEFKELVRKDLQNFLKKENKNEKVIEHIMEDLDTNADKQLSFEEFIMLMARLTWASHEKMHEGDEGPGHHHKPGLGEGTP

[11] = biological target: T11, h S100B (human, UniProt P04271); test: as above
T11 construct: purified protein on a PVDF membrane; one of the 'other S100 family members'; also called human S100B
T11 sequence (looked up): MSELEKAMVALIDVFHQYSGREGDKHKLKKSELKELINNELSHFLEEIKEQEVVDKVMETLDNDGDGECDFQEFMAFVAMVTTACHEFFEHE

[12] = biological target: T12, h S100A5 (human, UniProt P33763); test: as above
T12 construct: purified protein on a PVDF membrane; one of the 'other S100 family members'; also called human S100A5
T12 sequence (looked up): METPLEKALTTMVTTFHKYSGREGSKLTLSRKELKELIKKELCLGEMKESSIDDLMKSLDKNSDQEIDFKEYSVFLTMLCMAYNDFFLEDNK

[13] = biological target: T13, h S100A12 (human, UniProt P80511); test: as above
T13 construct: purified protein on a PVDF membrane; one of the 'other S100 family members'; no amido black loading band is visible for this lane in the scan; also called human S100A12
T13 sequence (looked up): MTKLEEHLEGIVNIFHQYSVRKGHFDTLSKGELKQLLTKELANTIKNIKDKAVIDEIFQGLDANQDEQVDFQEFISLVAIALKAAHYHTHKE

[14] = biological target: T14, h S100A1 (human, UniProt P23297); test: as above
T14 construct: purified protein on a PVDF membrane; one of the 'other S100 family members'; also called human S100A1
T14 sequence (looked up): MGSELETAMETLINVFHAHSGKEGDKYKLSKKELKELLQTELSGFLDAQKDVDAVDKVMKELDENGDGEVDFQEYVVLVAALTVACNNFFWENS

[15] = biological target: T15, h S100A2 (human, UniProt P29034); test: as above
T15 construct: purified protein on a PVDF membrane; one of the 'other S100 family members'; its amido black loading band is very faint in the scan; also called human S100A2

[16] = biological target: T16, S100A4 peptide 8 (FLSCIAMMCNEF, 12-mer: 78-89) (human); test: peptide ELISA (FIG. 4A)
T16 construct: also called P8
T16 peptide: FLSCIAMMCNEF

[17] = biological target: T17, S100A4 peptide 7 (RDNEVDFQEYCV, 12-mer: 66-77) (human); test: peptide ELISA (FIG. 4A)
T17 construct: also called P7
T17 peptide: RDNEVDFQEYCV

[18] = biological target: T18, recombinant S100A4 protein (species not stated for the experiment); test: SPR (BIAcore 2000), S100A4 amine-coupled to CM5 chip, mAb injected, 1:1 fit
T18 construct: also called immobilized S100A4; oligomeric S100A4
Procedure: All SPR analyses were conducted on a BIAcore 2000 system (GE-Healthcare Life Sciences, Upsala, Sweden). The experiments were performed at 25° C. using HBST/Ca (10 mM HEPES, 150 mM NaCl, 0.005% Tween® and 50 μM CaCl2) as running buffer. The S100A4 protein was immobilized on a sensor chip CM5 (GE-Healthcare, BR-1000-12) using the amine coupling kit from GE Healthcare (BR-1000-50). The flow rate was set to 5 μl/min. The flow cells were activated individually by injecting 35 μl freshly mixed 0.4 M EDC ((N-(3-dimethylaminopropyl)-N′-ethylcarbodiimide hydrochloride) in 0.05 M NHS (N-hydroxysuccinimide) solution. Then 5 μg/ml S100A4 protein diluted in 10 mM acetic acid, pH 5.0 was injected for 1 to 10 minutes until the desired level of immobilization was reached (about 400 to 800 RU). The remaining active groups were deactivated by injecting 35 μl 1 M ethanolamine (pH 8.5). All experiment included a reference surface which was prepared by activating and deactivating of the surface of flow cell 1 (FC1). The blank surface reference was used to correct for bulk effects and nonspecific binding. The channel referencing was done automatically by the BIACORE 2000 control software.
The injections were performed using the KINJECT mode (injection10 min, dissociation 20-30 min). The flow rate during injection and regeneration was kept at 50 μl/min. […]

T18 sequence (P07091 whole entry): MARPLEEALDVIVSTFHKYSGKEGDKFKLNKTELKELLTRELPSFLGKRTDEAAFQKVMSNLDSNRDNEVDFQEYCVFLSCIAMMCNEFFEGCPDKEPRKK
T9 sequence (P07091 2-101 limits assumed, one chain of several): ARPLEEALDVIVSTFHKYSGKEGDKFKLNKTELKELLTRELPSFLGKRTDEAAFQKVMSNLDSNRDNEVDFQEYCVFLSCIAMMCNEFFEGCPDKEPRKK
T15 sequence (P29034 whole entry, one chain of several): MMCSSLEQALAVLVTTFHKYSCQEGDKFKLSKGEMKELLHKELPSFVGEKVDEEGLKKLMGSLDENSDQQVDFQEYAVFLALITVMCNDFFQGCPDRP
T8 sequence (P26447 2-101 limits assumed, one chain of several): as the sequence (P07091 2-101 limits assumed, one chain of several) above, with R2C, E6K, I11M, T31S, V57L, C92F, E96Q counted along it

B1: anti-S100A4 mouse monoclonal antibody, clone 6B12 (antibody, V domains shown)
VH: DVQLQESGPGLVKPSQSLSLTCSVTGDSFTNDYYWNWIRQFPGSKLEWMGHIGYGGNINYNPSLKNRISITRDTSKNQFFLRLTSVTTEDTATYYCTRESFYDGYPFDYWGQGTLVTVSA
VL: DIQMTQTTSSLSASLGDRVTISCRASQDIRNYLNWYQQRPGGTLKLLIYYTSRLHSGVPSRFSGSGSGTDYSLTISNLEQEDIATYFCQQGNSLPRTFGGGTKLEIK
notes: constant regions are not; also called 6B12 mAb; mAb 6B12
[1]
  binding result: no binding
[2]
  binding result: no binding
[3]
  binding result: no binding
[4]
  binding result: no binding
[5]
  binding result: no binding
[6]
  binding result: no binding
[7]
  binding result: no binding
[8]
  binding result: binds
[9]
  binding result: binds
[10]
  binding result: no binding
[11]
  binding result: no binding
[12]
  binding result: no binding
[13]
  binding result: no binding
[14]
  binding result: no binding
[15]
  binding result: no binding
[16]
  binding result: binds
[17]
  binding result: binds
[18]
  Kd: 0.114 nM
  kon: 287000 M⁻¹ s⁻¹
